This note sets out measurements from patent US20110143963A1 (UNIVERSITY OF CHICAGO, published 2011).

In assay [1] the target is T1, SUMO-ARVCF fusion protein (yeast).
T1 construct: also called target peptide fused to the yeast SUMO protein; the target
In words: SPR, equilibrium mode, target peptide fused to yeast SUMO. (Surface plasmon resonance follows binding to a sensor surface in real time, without labels.)

The target of assay [2] is T1, SUMO-ARVCF fusion protein. The assay can be described thus: SPR, ratio of Kd.
Assay [3] has as its target T2, ARVCF peptide PQPVDSWV-COOH (eight-residue motif corresponding to the ARVCF C-terminus) (not fully specified; printed as PQPVDSWV-COOH).
T2 construct: also called ARVCF target peptide; AVFCF peptide
T2 peptide: PQPVDSWV-OH
The assay can be described thus: SPR (BIAcore).

The target in assay [4] is T2, ARVCF peptide PQPVDSWV-COOH …. In words: SPR, ratio of Kd.
For assay [5] the target is unchanged. In words: SPR (error 13500 stands in r16c7).
Assay [6] deals with T3, target motif GGRSWFETWV-COOH.
T3 construct: also called target peptide
T3 peptide: GGRSWFETWV-OH
In words: phage display format and SPR. The procedure: From visual inspection of the erbin PDZ structure and a sequence alignment of PDZ domains, three potential sites were identified for the new termini in a circularly permutated PDZ domain. Three mutant PDZ domains, in which four Gly residues were inserted in one of the three candidate sites, were assayed for binding to the target motif using the phage display format.

What is called Kd is the free concentration of one partner at which half of the binding sites on the other are occupied at equilibrium, for simple one-to-one binding. Low values mean higher affinity, high ones lower affinity.

Where no end group is shown, it is not given here.

B1: peptide-PDZ affinity clamp, clone 282-6 (designed binder)
chain: GSNFCASNGTGNDCRRPELGFSISGGVGGRGNPFRPDDDGIFVTRVQPEGPASKLLQPGDKIIQANGYSFINIEHGQAVSLLKTFQNTVELIIVREVGNGAKQEIRVRVEKDGG
modifications: disulfide-constrained (Cys-constrained) peptide segment
On to B1, for which, in assay [1], the Kd came out at 0.91 µM. For the same molecule, in assay [2], the “fold higher affinity than the parent interaction domain (cpPDZ)” value amounted to 12 fold.

B2: fusion protein of cpPDZ and FN3 (starting material) (designed binder)
chain: PELGFSISGGVGGRGNPFRPDDDGIFVTRVQPEGPASKLLQPGDKIIQANGYSFINIEHGQAVSLLKTFQNTVELIIVREVGNGAKQEIRVRVEKDGGSGGVSSVPTNLEVVAATPTSLLISWDASSSSVSYYRITYGETGGNSPVQEFTVPGSKSTATISGLKPGVDYTITVYASSSSSSSSSSPISINYRT
With B2, the Kd turned out to be 25 µM in assay [3] and 24.8 µM in assay [5]. For the same molecule, the “Affinity Enhancement (Kd of cpPDZFN for ARVCF / Kd of the clamp)” value in assay [4] stood at 1 fold.

B3: circularly permutated PDZ domain (designed binder)
chain: PELGFSISGGVGGRGNPFRPDDDGIFVTRVQPEGPASKLLQPGDKIIQANGYSFINIEHGQAVSLLKTFQNTVELIIVREVGNGAKQEIRVRVEKD
notes: The order would be PDZ residues 21 to C-terminus, Asn-Gly, then residues 1-20; also called cpPDZ
For the molecule B3, in assay [6], the binding result is “binds”.
